Source: US20050214802A1 (Genentech, published 2005)

Assays:
[1] = molecular target: ΔCARD human caspase 9 (lacking the first 138 residues) with Ala substitutions at residues 304 to 306 (human) (UniProt P55211); assay: caspase-9 inhibition assay, ratio of Ki(app)
[2] = molecular target: ΔCARD human caspase 9 (lacking the first 138 residues) with Ala substitutions at residues 304 to 306 (human) (UniProt P55211); assay: Ki(app), inhibition of ΔCARD caspase-9 hydrolysis of Ac-LEHD-AFC
[3] = molecular target: ΔCARD human caspase 9 (lacking the first 138 residues) with Ala substitutions at residues 304 to 306 (human) (UniProt P55211); assay: Ki(app), inhibition of ΔCARD caspase-9 hydrolysis of Ac-LEHD-AFC; too low to measure accurately
[4] = molecular target: ΔCARD human caspase 9 (lacking the first 138 residues) with Ala substitutions at residues 304 to 306 (human) (UniProt P55211); assay: caspase-9 inhibition assay, ratio of Ki(app); remark: listed apart in the source
[5] = molecular target: ΔCARD human caspase 9 (lacking the first 138 residues) with Ala substitutions at residues 304 to 306 (human) (UniProt P55211); assay: Ki(app), caspase-9 inhibition; lower end tied by Table 7 to full-length ML-IAP (3,200 nM)
[6] = molecular target: ΔCARD human caspase 9 (lacking the first 138 residues) with Ala substitutions at residues 304 to 306 (human) (UniProt P55211); assay: Ki(app), caspase-9 inhibition; upper end tied by Table 7 to MLBIR-Q (4,600 nM)
[7] = molecular target: T1, caspase-9 zymogen precursor (overexpressed in 293T cells) (UniProt P55211 1-416); assay: co-immunoprecipitation (anti-Flag) from 293T lysates, Western blot with anti-caspase-9
T1 sequence (looked up): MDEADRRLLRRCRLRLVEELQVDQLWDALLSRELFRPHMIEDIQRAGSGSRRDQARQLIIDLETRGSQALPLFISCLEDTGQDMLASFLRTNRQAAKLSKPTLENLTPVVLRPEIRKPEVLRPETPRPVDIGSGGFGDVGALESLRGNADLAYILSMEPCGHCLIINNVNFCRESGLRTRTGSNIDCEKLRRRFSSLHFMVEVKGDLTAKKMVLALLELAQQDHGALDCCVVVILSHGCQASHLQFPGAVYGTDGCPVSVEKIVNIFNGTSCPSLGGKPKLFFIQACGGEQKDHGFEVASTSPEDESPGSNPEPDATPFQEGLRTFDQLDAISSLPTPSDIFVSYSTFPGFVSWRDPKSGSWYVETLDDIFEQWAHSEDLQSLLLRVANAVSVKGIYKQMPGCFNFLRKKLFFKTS
Procedure: 293T cells were transiently transfected with caspase-9 and Flag-tagged BIR domain proteins or vector. After 40 h, cells were lysed in NP40 lysis buffer (120 mM Tris, 150 mM NaCl, 1% NP-40, 1 mM DTT and protease inhibitor cocktail) and lysates immunoprecipitated (IP) with anti-Flag antibody. Samples were then Western blotted with anti-caspase-9 and anti-Flag antibodies. […] When overexpressed, caspase-9 undergoes autocatalytic processing and it is the processed form that physically interacts with XIAP and ML-IAP BIR domains.

Molecule: MLXBIR3 (ML-IAP-BIR with amino acids 160-179 replaced by amino acids 336-348 of XIAP-BIR3) (from UniProt Q96CA5 63-159; P98170 336-348)
- fold better at inhibiting caspase-9 than MLBIR-Q [1]: 5 fold
- fold less potent at inhibiting caspase-9 than XIAP-BIR3 [1]: 70 fold
- Ki [2]: 962 nM

Molecule: XIAP-BIR3 (third BIR of XIAP, residues 252-348) (from UniProt P98170 252-348)
- Ki [2]: 13 nM

Molecule: MLXBIR3SG (ML-IAP chimera: ML-IAP-BIR framework with XIAP-BIR3 residues 336-348 in place of 160-179 and S150G)
- Ki [3]: < 1 nM

B1: full-length ML-IAP with N-terminal His6-tag (protein, human, UniProt Q96CA5 1-298, looked up, not shown: small tags and cut ends)
chain: MGPKDSAKCLHRGPQPSHWAAGDGPTQERCGPRSLGSPVLGLDTCRAWDHVDGQILGQLRPLTEEEEEEGAGATLSRGPAFPGMGSEELRLASFYDWPLTAEVPPELLAAAGFFHTGHQDKVRCFFCYGGLQSWKRGDDPWTEHAKWFPSCQFLLRSKGRDFVHSVQETHSQLLGSWDPWEEPEDAAPVAPSVPASGYPELPTPRREVQSESAQEPGGVSPAEAQRAWWVLEPPGARDVEAQLRRLQEERTCKVCLDRAVSIVFVPCGHLVCAECAPGLQLCPICRAPVRSRVRTFLS
- fold lower potency for inhibition of caspase-9 relative to XIAP [4]: 300 fold
- Ki [5]: 3000 to 5000 nM
- Ki [2]: 3200 nM

B2: MLBIR-Q (C-terminally truncated variant of ML-IAP-BIR) (protein, human, UniProt Q96CA5 63-172, looked up, not shown: small tags and cut ends)
chain: TEEEEEEGAGATLSRGPAFPGMGSEELRLASFYDWPLTAEVPPELLAAAGFFHTGHQDKVRCFFCYGGLQSWKRGDDPWTEHAKWFPSCQFLLRSKGRDFVHSVQETHSQ
- Ki [2]: 4600 nM
- Ki [6]: 3000 to 5000 nM

B3: Flag-tagged ML-IAP-BIR (expressed in 293T cells) (other, human, UniProt Q96CA5 63-179, looked up)
chain: TEEEEEEGAGATLSRGPAFPGMGSEELRLASFYDWPLTAEVPPELLAAAGFFHTGHQDKVRCFFCYGGLQSWKRGDDPWTEHAKWFPSCQFLLRSKGRDFVHSVQETHSQLLGSWDP
notes: domain: BIR; also called MLBIR; wild-type ML-IAP-BIR; not shown: Flag tag
- binding result [7]: no binding
